The target of one assay is HLA-B*08:01. The assay can be described thus: IEDB peptide-MHC binding, purified MHC/competitive/radioactivity; filed as Kd, often an IC50 or EC50 that approximates it; ≥ and ≤ were set here for values at or beyond the usual limits of such assays.
Another assay has as its target HLA-B*15:03. Described as above.
Another assay addresses HLA-A*32:01. Described as above.
In a further assay the target is HLA-A*02:12. The experiment in a line: IEDB peptide-MHC binding, purified MHC/direct/fluorescence; filed as Kd, often an IC50 or EC50 that approximates it; ≥ and ≤ were set here for values at or beyond the usual limits of such assays.
The next assay deals with HLA-A*02:11. The assay is described as above.
A further assay deals with HLA-A*02:16. Described as above.
Another assay deals with HLA-A*68:02. Described as above.
The target in the next assay is HLA-A*02:03. Described as above.
Assay [1] addresses HLA-A*03:01. The description is as above.
In a further assay the target is HLA-A*02:19. The description is as above.
Assay [2] addresses HLA-A*26:01. The description is as above.
The target of another assay is HLA-B*18:01. The assay can be described thus: IEDB peptide-MHC binding, purified MHC/competitive/fluorescence; filed as Kd, often an IC50 or EC50 that approximates it; ≥ and ≤ were set here for values at or beyond the usual limits of such assays.
A further assay deals with HLA-A*02:01. The description is as above.
A further assay addresses HLA-B*51:01. The description is as above.
The next assay addresses HLA-B*57:01. The assay is described as above.
The target in another assay is HLA-B*39:01. Described as above.
For the next assay, the target named is HLA-B*46:01. Described as above.
The target in a further assay is HLA-A*69:01. The assay is described as above.
Another assay deals with HLA-B*27:03. The description is as above.
In assay [3] the target is HLA-B*15:01. The assay can be described thus: IEDB peptide-MHC binding, purified MHC/competitive/radioactivity; filed as Kd, often an IC50 or EC50 that approximates it; ≥ and ≤ were set here for values at or beyond the usual limits of such assays.
The target in a further assay is HLA-A*30:01. The description is as above.
The target in a further assay is HLA-B*58:01. The assay is described as above.
Another assay has as its target HLA-B*35:01. The description is as above. As to conditions: source organism: Dengue virus 1 Singapore/S275/1990.
The next assay has as its target HLA-B*53:01. The assay is described as above.
The target in assay [4] is HLA-A*11:01. The assay can be described thus: IEDB peptide-MHC binding, purified MHC/direct/fluorescence; filed as Kd, often an IC50 or EC50 that approximates it; ≥ and ≤ were set here for values at or beyond the usual limits of such assays. The following applies: source organism: Escherichia coli O157:H7.
The target in another assay is HLA-A*31:01. The assay can be described thus: IEDB peptide-MHC binding, purified MHC/competitive/fluorescence; filed as Kd, often an IC50 or EC50 that approximates it; ≥ and ≤ were set here for values at or beyond the usual limits of such assays.
The target in another assay is HLA-A*24:03. The experiment in a line: IEDB peptide-MHC binding, purified MHC/direct/fluorescence; filed as Kd, often an IC50 or EC50 that approximates it; ≥ and ≤ were set here for values at or beyond the usual limits of such assays. The following applies: source organism: Tai Forest virus - Cote d'Ivoire, Cote d'Ivoire, 1994.
The target of another assay is HLA-B*15:17. The assay can be described thus: IEDB peptide-MHC binding, purified MHC/competitive/fluorescence; filed as Kd, often an IC50 or EC50 that approximates it; ≥ and ≤ were set here for values at or beyond the usual limits of such assays.
Assay [5] has as its target HLA-B*15:01. The description is as above. As to conditions: source organism: Reston ebolavirus.
In assay [6] the target is HLA-A*26:01. Described as above. As to conditions: source organism: Reston ebolavirus.
The target in assay [7] is HLA-A*03:01. The experiment in a line: IEDB peptide-MHC binding, purified MHC/competitive/radioactivity; filed as Kd, often an IC50 or EC50 that approximates it; ≥ and ≤ were set here for values at or beyond the usual limits of such assays. The following applies: source organism: Dengue virus 1 Singapore/S275/1990.
Assay [8] concerns the target HLA-A*11:01. The description is as above. The following applies: source organism: Dengue virus 1 Singapore/S275/1990.
The mark [9] stands for this setting: source organism: Vaccinia virus WR.
Setting [10] is: source organism: Orthohantavirus andesense.
[11] abbreviates: source organism: Vaccinia virus Copenhagen.
The mark [12] stands for this setting: source organism: Dengue virus 1 Singapore/S275/1990.
The mark [13] stands for this setting: source organism: Escherichia coli O157:H7.
The mark [14] stands for this setting: source organism: Reston ebolavirus.
Setting [15] is: source organism: Dengue virus 1 Brazil/97-11/1997.
The mark [16] stands for this setting: source organism: Araucaria virus.

Take SMNTIKQSF: the Kd (usually the equilibrium constant for the complex coming apart) was determined as 0.449 µM in the assay with HLA-B*08:01 (setting [9]), 0.0165 µM in the assay with HLA-B*15:03 (setting [9]) and 0.293 µM with HLA-A*32:01 (setting [9]).
Turning to IQRTYSSSI, in the assay with HLA-B*15:03 (setting [9]), the Kd was 0.00083 µM.
In the case of AVEDFLAFF, the Kd with HLA-A*02:12 (setting [10]), with HLA-A*02:11 (setting [10]), with HLA-A*02:16 (setting [10]), with HLA-A*68:02 (setting [10]), with HLA-A*02:03 (setting [10]) and with HLA-A*03:01 [1] (setting [10]) was ≥ 20 µM each time. Moreover, the Kd with HLA-A*02:19 (setting [10]) was ≥ 20 µM; with HLA-A*26:01 [2] (setting [10]) it was 1.39 µM; with HLA-B*18:01 (setting [10]), ≥ 20 µM; in the assay with HLA-A*02:01 (setting [10]), ≥ 20 µM; with HLA-B*51:01 (setting [10]) it was ≥ 20 µM; with HLA-B*57:01 (setting [10]), ≥ 20 µM. Besides, the Kd in the assay with HLA-B*39:01 (setting [10]), in the assay with HLA-B*46:01 (setting [10]), with HLA-A*69:01 (setting [10]) and with HLA-B*27:03 (setting [10]) was ≥ 20 µM each time.
In the case of IHFMREYWF, the Kd was found to be 8.05 µM in the assay with HLA-B*08:01 (setting [11]); 0.222 µM with HLA-B*15:03 (setting [11]); 12.4 µM with HLA-A*32:01 (setting [11]); 6.91 µM in the assay with HLA-B*15:01 [3] (setting [11]); 0.0449 µM with HLA-A*30:01 (setting [11]).
As for MASSVLLWM, the Kd with HLA-B*58:01 (setting [12]) came to 0.0003 µM; with HLA-B*35:01, 0.0566 µM; with HLA-B*53:01 (setting [12]), 0.00061 µM.
Consider AVAKYFSPL, for which the Kd with HLA-B*08:01 (setting [9]) is 0.189 µM; in the assay with HLA-B*15:03 (setting [9]), 0.235 µM; in the assay with HLA-A*32:01 (setting [9]) it was 0.283 µM; with HLA-B*15:01 [3] (setting [9]), 0.016 µM; with HLA-A*30:01 (setting [9]), 8.98 µM.
Consider FKAMWKYPF, for which, in the assay with HLA-B*15:03 (setting [9]), the Kd is 0.000109 µM.
On the same count and under the same terms, to KLTSTETSF belongs 0.0254 µM; to FTRCAVIPF, 0.0054 µM.
With ATREGKHGK, the Kd in the assay with HLA-A*03:01 [1] (setting [13]) is 0.301 µM; in the assay with HLA-A*11:01 [4] it was 0.254 µM; in the assay with HLA-A*31:01 (source organism: Shewanella baltica OS155), 0.0813 µM.
As for IQTLNGKHF, the Kd in the assay with HLA-B*15:03 (setting [9]) came to 0.0114 µM.
Turning to WFQRIPLQW, the Kd in the assay with HLA-A*02:12 (setting [14]), with HLA-A*02:11 (setting [14]), with HLA-A*02:16 (setting [14]), with HLA-A*68:02 (setting [14]), with HLA-A*02:03 (setting [14]) and with HLA-A*03:01 [1] (setting [14]) was ≥ 20 µM each time. Moreover, the Kd with HLA-A*02:19 (setting [14]) is ≥ 20 µM; with HLA-A*24:03 it was 0.0003 µM; in the assay with HLA-B*18:01 (setting [14]), ≥ 20 µM; in the assay with HLA-A*02:01 (setting [14]), ≥ 20 µM; with HLA-B*51:01 (setting [14]), ≥ 20 µM; with HLA-B*57:01 (setting [14]), ≥ 20 µM. For the same sequence, the Kd in the assay with HLA-B*39:01 (setting [14]), in the assay with HLA-B*46:01 (setting [14]), with HLA-B*15:17 (setting [14]), with HLA-A*69:01 (setting [14]), with HLA-B*15:01 [5] and with HLA-A*26:01 [6] was ≥ 20 µM each time. For the same sequence, the Kd with HLA-B*27:03 (setting [14]) is ≥ 20 µM.
Consider IASLPTYLSS, for which the Kd with HLA-B*58:01 (source organism: Dengue virus 4 Philippines/H241/1956) is ≥ 36.3 µM.
As for ITLTNVVNI, the Kd with HLA-B*08:01 (setting [9]) was 4.49 µM; in the assay with HLA-B*15:03 (setting [9]) it was 0.0218 µM; with HLA-A*32:01 (setting [9]), 0.0771 µM; in the assay with HLA-B*15:01 [3] (setting [9]) it was 0.0116 µM; with HLA-A*30:01 (setting [9]), 0.0346 µM.
With LPTNEFISF, the Kd in the assay with HLA-B*15:03 (setting [9]) was found to be 0.0337 µM.
As to SVAPGTDFR, the Kd with HLA-A*03:01 [1] (setting [13]) was determined as 0.506 µM; in the assay with HLA-A*11:01 [4] it was 0.0018 µM; with HLA-A*31:01 (source organism: Escherichia coli O157:H7 str. EDL933) it was 0.007 µM.
Turning to HVKSTLNNA, the Kd in the assay with HLA-B*08:01 (setting [9]) was 1.53 µM; in the assay with HLA-B*15:03 (setting [9]), 0.376 µM; in the assay with HLA-A*32:01 (setting [9]) it was ≥ 41.7 µM; with HLA-B*15:01 [3] (setting [9]), 0.366 µM; with HLA-A*30:01 (setting [9]), 0.00115 µM.
As to RQNRSQYLF, the dissociation constant Kd in the assay with HLA-B*15:03 (setting [11]) turned out to be 0.000137 µM.
As to IKYACKQIL, the Kd with HLA-B*08:01 (setting [9]) was 8.67 µM; in the assay with HLA-B*15:03 (setting [9]), 0.252 µM; with HLA-A*32:01 (setting [9]) it was 10.7 µM; with HLA-B*15:01 [3] (setting [9]), 6.87 µM; in the assay with HLA-A*30:01 (setting [9]) it was 2.11 µM.
For ASSMVNGVVK, the Kd was found to be 2.79 µM with HLA-B*58:01 (setting [12]), 0.325 µM in the assay with HLA-A*03:01 [7] and 0.0304 µM with HLA-A*11:01 [8].
Take RFNVPGTWR: the figures for the Kd with HLA-A*03:01 [1] (setting [13]), in the assay with HLA-A*11:01 [4] and in the assay with HLA-A*31:01 (source organism: Escherichia coli K-12) were 1.92 µM, ≥ 20 µM and 0.00127 µM, respectively.
With LLIMGQLTW, the dissociation constant (Kd) with HLA-B*58:01 (setting [15]) worked out at 0.0111 µM; with HLA-B*53:01 (setting [15]), 0.342 µM.
For GVPELGAFF, the Kd with HLA-A*02:12 (setting [16]), in the assay with HLA-A*02:11 (setting [16]), in the assay with HLA-A*02:16 (setting [16]), with HLA-A*02:03 (setting [16]), in the assay with HLA-A*03:01 [1] (setting [16]) and with HLA-A*02:19 (setting [16]) was ≥ 20 µM in each case. In addition, the Kd is 0.207 µM with HLA-A*26:01 [2] (source organism: Itapua hantavirus); ≥ 20 µM in the assay with HLA-B*18:01 (setting [16]); ≥ 20 µM with HLA-A*02:01 (setting [16]); ≥ 20 µM in the assay with HLA-B*51:01 (setting [16]); ≥ 20 µM in the assay with HLA-B*57:01 (setting [16]); ≥ 20 µM with HLA-B*39:01 (setting [16]). Besides, the Kd with HLA-B*46:01 (setting [16]), with HLA-B*15:17 (setting [16]), in the assay with HLA-A*69:01 (setting [16]) and with HLA-B*27:03 (setting [16]) was ≥ 20 µM each time.

The record behind these values is the Immune Epitope Database (IEDB).
